In article PMC11981803:

Tests used:
[1] = target: transmembrane domain of SaeS (SaeS TM), reconstituted into DMPC/DHPC bicelles (Staphylococcus aureus); test: SPR
[2] = target: transmembrane domain of SaeS (SaeS TM), reconstituted into DMPC/DHPC bicelles (Staphylococcus aureus); test: SDS-PAGE

transmembrane domain of SaeS (SaeS TM), reconstituted into DMPC/DHPC bicelles (Staphylococcus aureus), sequence (Q2FIT5 whole entry, the tested form may be a part): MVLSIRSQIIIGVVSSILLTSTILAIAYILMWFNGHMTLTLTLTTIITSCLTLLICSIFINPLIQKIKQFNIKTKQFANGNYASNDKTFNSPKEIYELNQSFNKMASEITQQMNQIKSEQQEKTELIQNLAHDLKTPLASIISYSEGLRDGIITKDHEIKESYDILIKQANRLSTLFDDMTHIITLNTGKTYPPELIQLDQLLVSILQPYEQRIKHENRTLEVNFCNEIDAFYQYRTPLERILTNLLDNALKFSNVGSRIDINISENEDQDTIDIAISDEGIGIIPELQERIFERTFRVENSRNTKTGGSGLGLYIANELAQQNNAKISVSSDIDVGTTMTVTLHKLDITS

| Substance | Kd [1] [nM] | koff [1] [s⁻¹] | kon [1] [M⁻¹ s⁻¹] | stoichiometry N [2] |
| --- | --- | --- | --- | --- |
| Human neutrophil defensin-1 (from UniProt P59665 65-94) (peptide) | 1070 | 0.0186 | 17400 |  |
| transmembrane domain of SaeS (SaeS TM), reconstituted into DMPC/DHPC bicelles (domain or fragment) |  |  |  | 2 |
